The target of assay [1] is NS5A NLS synthetic peptide (fused to penetratin) (hepatitis C virus | not stated). As to the kind of experiment: ELISA; plates coated with synthetic peptide (10 µg/ml, carbonate buffer pH 9.6); increasing concentrations of recombinant NTF, 2 h, room temperature; anti-HIS detection; apparent Kd. Particulars: remark: other sources report otherwise. (In general: An ELISA detects its analyte on a solid surface through an enzyme-linked reagent.)

Assay [2] concerns the target Core NLS 4 synthetic peptide (fused to penetratin) (hepatitis C virus | not stated). The assay is described as above. The note with it: remark: other sources report otherwise.
Assay [3] has as its target NS3 NLS 1 synthetic peptide (fused to penetratin) (hepatitis C virus | not stated). The assay is described as above. Particulars: remark: other sources report otherwise.
For assay [4], the target named is NS3 NLS 2 synthetic peptide (fused to penetratin) (hepatitis C virus | not stated). The description is as above. Particulars: remark: other sources report otherwise.
Assay [5] has as its target T1, IPO5 (Homo sapiens), O00410.
T1 chain: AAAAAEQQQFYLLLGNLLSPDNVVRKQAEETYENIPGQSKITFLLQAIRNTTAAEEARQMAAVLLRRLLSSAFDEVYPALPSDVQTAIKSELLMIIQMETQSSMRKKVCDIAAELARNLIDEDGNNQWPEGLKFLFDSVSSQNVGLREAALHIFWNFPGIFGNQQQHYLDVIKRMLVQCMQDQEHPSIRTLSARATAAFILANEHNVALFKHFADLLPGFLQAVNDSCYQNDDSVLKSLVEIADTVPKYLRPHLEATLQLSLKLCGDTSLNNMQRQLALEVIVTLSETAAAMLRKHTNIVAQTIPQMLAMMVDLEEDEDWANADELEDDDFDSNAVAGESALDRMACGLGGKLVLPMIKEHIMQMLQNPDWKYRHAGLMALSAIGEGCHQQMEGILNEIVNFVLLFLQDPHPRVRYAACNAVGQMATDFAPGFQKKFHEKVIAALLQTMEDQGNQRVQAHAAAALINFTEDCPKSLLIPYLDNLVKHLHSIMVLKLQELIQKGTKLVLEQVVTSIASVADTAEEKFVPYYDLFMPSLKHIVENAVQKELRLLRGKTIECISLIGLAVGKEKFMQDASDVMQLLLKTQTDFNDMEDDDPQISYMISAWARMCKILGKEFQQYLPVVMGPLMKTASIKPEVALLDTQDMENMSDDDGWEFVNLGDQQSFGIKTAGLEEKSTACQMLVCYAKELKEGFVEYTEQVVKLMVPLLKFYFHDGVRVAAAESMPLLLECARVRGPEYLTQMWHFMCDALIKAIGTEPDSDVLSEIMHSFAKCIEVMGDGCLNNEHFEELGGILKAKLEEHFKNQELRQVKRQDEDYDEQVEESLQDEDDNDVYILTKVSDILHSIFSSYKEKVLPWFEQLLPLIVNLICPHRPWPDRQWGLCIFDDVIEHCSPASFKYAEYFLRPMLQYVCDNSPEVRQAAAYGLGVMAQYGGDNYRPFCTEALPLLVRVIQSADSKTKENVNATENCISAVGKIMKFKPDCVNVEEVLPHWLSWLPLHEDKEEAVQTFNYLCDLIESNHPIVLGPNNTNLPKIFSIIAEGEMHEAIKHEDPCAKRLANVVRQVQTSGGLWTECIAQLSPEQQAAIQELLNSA
Particulars: modification not given.

B1: recombinant IPO5 (importin β3/kap β3), O00410-1 1-1097 (natural protein)
chain: MAAAAAEQQQFYLLLGNLLSPDNVVRKQAEETYENIPGQSKITFLLQAIRNTTAAEEARQMAAVLLRRLLSSAFDEVYPALPSDVQTAIKSELLMIIQMETQSSMRKKVCDIAAELARNLIDEDGNNQWPEGLKFLFDSVSSQNVGLREAALHIFWNFPGIFGNQQQHYLDVIKRMLVQCMQDQEHPSIRTLSARATAAFILANEHNVALFKHFADLLPGFLQAVNDSCYQNDDSVLKSLVEIADTVPKYLRPHLEATLQLSLKLCGDTSLNNMQRQLALEVIVTLSETAAAMLRKHTNIVAQTIPQMLAMMVDLEEDEDWANADELEDDDFDSNAVAGESALDRMACGLGGKLVLPMIKEHIMQMLQNPDWKYRHAGLMALSAIGEGCHQQMEGILNEIVNFVLLFLQDPHPRVRYAACNAVGQMATDFAPGFQKKFHEKVIAALLQTMEDQGNQRVQAHAAAALINFTEDCPKSLLIPYLDNLVKHLHSIMVLKLQELIQKGTKLVLEQVVTSIASVADTAEEKFVPYYDLFMPSLKHIVENAVQKELRLLRGKTIECISLIGLAVGKEKFMQDASDVMQLLLKTQTDFNDMEDDDPQISYMISAWARMCKILGKEFQQYLPVVMGPLMKTASIKPEVALLDTQDMENMSDDDGWEFVNLGDQQSFGIKTAGLEEKSTACQMLVCYAKELKEGFVEYTEQVVKLMVPLLKFYFHDGVRVAAAESMPLLLECARVRGPEYLTQMWHFMCDALIKAIGTEPDSDVLSEIMHSFAKCIEVMGDGCLNNEHFEELGGILKAKLEEHFKNQELRQVKRQDEDYDEQVEESLQDEDDNDVYILTKVSDILHSIFSSYKEKVLPWFEQLLPLIVNLICPHRPWPDRQWGLCIFDDVIEHCSPASFKYAEYFLRPMLQYVCDNSPEVRQAAAYGLGVMAQYGGDNYRPFCTEALPLLVRVIQSADSKTKENVNATENCISAVGKIMKFKPDCVNVEEVLPHWLSWLPLHEDKEEAVQTFNYLCDLIESNHPIVLGPNNTNLPKIFSIIAEGEMHEAIKHEDPCAKRLANVVRQVQTSGGLWTECIAQLSPEQQAAIQELLNSA
In the case of B1, the Kd stood at 32.3 nM in assay [1], 105 nM in assay [2], 33.8 nM in assay [3] and 35.8 nM in assay [4].

Take TRQARRNRRRRWRERQR [HIV-1 Rev NLS peptide NLS peptide, P04325]: the Kd in assay [5] stood at 44 nM.
